Results reported in paper doi:10.1101/2021.08.17.456605.
Values belong to the substance of their own block, whether it stands above or below them.

Experiments:
[1] = molecular target: Heimdallarchaeota AB125 Vps22 (HeimAB125_14050) (Heimdallarchaeota AB125); experiment: SEC-MALS
[2] = molecular target: Heimdallarchaeota AB125 Vps22 (HeimAB125_14050) (Heimdallarchaeota AB125); experiment: cross-linking
[3] = molecular target: Odinarchaeota LCB_4 Vps23(TSG101) (Odinarchaeota archaeon LCB_4); experiment: SEC-MALS

stoichiometry N [1]: 2
stoichiometry N [2]: 2
Substance: Heimdallarchaeota AB125 Vps22 (HeimAB125_14050) (natural protein)

stoichiometry N [3]: 2
Substance: Odinarchaeota LCB_4 Vps23(TSG101) (natural protein)

stoichiometry N (Vps28 per Vps23 dimer) [3]: 1
Substance: Odinarchaeota LCB_4 Vps28 (natural protein)
